# From patent US20240360214A1 (Pfizer, published 2024)
# Legend:
# huLILRB5 = huLILRB5 (human, UniProt O75023 24-458, limits assumed); assay: ELISA, target coated on the plate, detection with anti-human IgG-HRP, OD at 450 nm
# Description: (§1) Purified target proteins huLILRA1, A2, A3, A4, A5, A6, huLILRB1, B2, B3, B4 and B5 (all purchased from R&D) were coated on Nunc-Maxisorb 96-well ELISA plate at 1 ug/ml concentration and stored at 4° C. overnight. Plate was washed 3 times with PBS+0.05% Tween-20 and blocked with PBS+3% milk for 1 hour at room temperature. Tested LILRB1/LILRB2 bispecific antibody was serially diluted 5-fold in PBS+3% milk, starting from 133 nM. Blocking solution was removed and serially diluted antibody was added and incubated for 1 hour at room temperature. Plate was washed and a secondary detecting antibody (goat anti-human IgG-HRP from Invitrogen, Cat #31413, 1:5000) was added and incubated for 30 minutes at room temperature. Plate was washed again for 5 times; signal was developed using TMB substrate and the reaction stopped with 0.18M H₂SO₄. Absorbance was read at 450 nm on an envision plate reader (Perkin Elmer). […] There were no binding activities observed to any of the huLILRA family members tested, and no binding to huLILRB3, B4 or B5.
# huLILRA6 = huLILRA6 (human, UniProt Q6PI73 24-447, limits assumed); assay: as above
# Description: as §1
# huLILRA5 = huLILRA5 (human, UniProt A6NI73 42-268, limits assumed); assay: as above
# Description: as §1
# huLILRA2 = huLILRA2 (human, UniProt Q8N149 24-449, limits assumed); assay: as above
# Description: as §1
# huLILRA1 = huLILRA1 (human, UniProt O75019 17-461, limits assumed); assay: as above
# Description: as §1
# huLILRA3 = huLILRA3 (human, UniProt Q8N6C8 24-439); assay: as above
# Description: as §1
# huLILRA4 = huLILRA4 (human, UniProt P59901 24-446, limits assumed); assay: as above
# Description: as §1
# huLILRB4 = huLILRB4 (human, UniProt Q8NHJ6 22-259, limits assumed); assay: as above
# Description: as §1
# [1] = target: T1, human LILRB2 (huLILRB2), purified recombinant protein (human, UniProt Q8N423 22-458, limits assumed); assay: as above
# T1 construct: Bought protein, used as the SPR analyte and as the ELISA coat; also called huLILIB2
# Description: as §1
# huLILRB3 = huLILRB3 (human, UniProt O75022 24-443, limits assumed); assay: as above
# Description: as §1
# [2] = target: T2, LILRB1 expressed on THP1 cells (human, UniProt Q8NHL6 24-650); assay: flow cytometry competition with PE HLA-G tetramer on THP1-LILRB1 cells
# T2 construct: whole, on cells; also called THP1 LILRB1 expressing cells; THP1-LILRB1 cells
# Description: (§2) LILRB1 or LILRB2 overexpressing THP1 cells were prepared in FACS buffer (0.5% BSA in PBS) and seeded in 100 μl/well (96 well plate) at 1λ10⁶ cells/ml concentration. The tested antibodies were serially diluted 3-fold into assay buffer starting from 200 nM. 40 μl of serial diluted antibody together with 40 μl of PE labelled HLA-G tetramer (FRED HUTCH IMT40509) at 2 ug/ml were added to each well and incubated on ice for 1 hour. The cells were washed 2 times with FACS buffer and resuspended in 50 μl/well FACS buffer containing 1:1000 dilution of LIVE/Dead fixable violet dead cell stain (Invitrogen #L34964), incubated on ice for 15 minutes. The cells were then washed with FACS buffer for 2 times and resuspended in 80 μl of Cytofix buffer (BD Cat #554655).
# (§3) The cell-based HLA-G ligand blocking assays followed the same procedure as described in Example 2.
# [3] = target: T3, LILRB2 expressed on THP1 cells (human, UniProt Q8N423 22-597); assay: flow cytometry competition with PE HLA-G tetramer on THP1-LILRB2 cells
# T3 construct: whole, on cells; also called THP1 LILRB2 expressing cells; THP1-LILRB2 cells
# Description: as §2, §3
# [4] = target: T4, human LILRB1 (huLILRB1), purified recombinant protein from R&D Systems (human, UniProt Q8NHL6 24-458, limits assumed); assay: SPR (Biacore 8K, 37 C), antibody captured by anti-human Fc, huLILRB1 as analyte, 1:1 fit
# T4 construct: Bought protein, used as the SPR analyte and as the ELISA coat; The catalog number 8429-T4 is printed once for 'human LILRB2 or LILRB1'
# Description: Biacore kinetic assays were conducted at 37° C. with a collection rate of 10 Hz using the Biacore 8K and 8K+instruments (Cytiva). Anti-LILRB2 antibodies were captured by an anti-human IgG (Fc specific) antibody (BR-1008-39, Cytiva) covalently coupled onto a CM5 sensor chip (29-1496-03, Cytiva) according to the manufacturer's instructions. The final capture levels of the antibodies ranged from 20 resonance units (RU) to 60 RU. HBS-EP+pH 7.4 (10 mM HEPES pH 7.4, 150 mM NaCl, 3 mM EDTA, 0.05% Tween 20) was used as sample and running buffer. Flow cell 1 was used as a reference flow cell. […] Dilutions were prepared in duplicate and injected over all flow cells for 60 s at flow rate of 50 μl per minute. Dissociation was monitored for 600 s and the surface was regenerated with two 30 s injections of 3M MgCl₂ at flow rate of 50 μl per minute. The resulting data was double referenced (Myszka, D. G. Improving biosensor analysis. J. Mol. Recognit. 12:279-284; (1999). Rate constants and affinities were determined by fitting the sensorgram data to a Langmuir 1:1 model using Biacore Insight Evaluation software version 3.0.12 (Cytiva). Results are summarized in Table 7.
# [5] = target: T1, human LILRB2 (huLILRB2), purified …; assay: SPR (Biacore 8K, 37 C), antibody captured by anti-human Fc, huLILRB2 as analyte, 1:1 fit
# T4 sequence (Q8NHL6 24-458 limits assumed): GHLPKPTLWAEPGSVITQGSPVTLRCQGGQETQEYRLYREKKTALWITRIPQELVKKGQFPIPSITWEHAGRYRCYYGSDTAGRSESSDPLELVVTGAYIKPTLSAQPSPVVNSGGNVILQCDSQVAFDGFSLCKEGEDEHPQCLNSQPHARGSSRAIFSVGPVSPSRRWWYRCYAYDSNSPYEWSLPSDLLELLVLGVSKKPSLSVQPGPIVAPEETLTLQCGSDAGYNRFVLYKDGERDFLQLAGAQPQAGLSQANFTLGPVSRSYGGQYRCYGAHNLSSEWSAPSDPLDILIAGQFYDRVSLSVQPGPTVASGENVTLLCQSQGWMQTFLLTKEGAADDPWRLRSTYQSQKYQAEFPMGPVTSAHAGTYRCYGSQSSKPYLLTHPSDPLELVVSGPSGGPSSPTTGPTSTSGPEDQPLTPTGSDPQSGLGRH
# T1 sequence (Q8N423 22-458 limits assumed): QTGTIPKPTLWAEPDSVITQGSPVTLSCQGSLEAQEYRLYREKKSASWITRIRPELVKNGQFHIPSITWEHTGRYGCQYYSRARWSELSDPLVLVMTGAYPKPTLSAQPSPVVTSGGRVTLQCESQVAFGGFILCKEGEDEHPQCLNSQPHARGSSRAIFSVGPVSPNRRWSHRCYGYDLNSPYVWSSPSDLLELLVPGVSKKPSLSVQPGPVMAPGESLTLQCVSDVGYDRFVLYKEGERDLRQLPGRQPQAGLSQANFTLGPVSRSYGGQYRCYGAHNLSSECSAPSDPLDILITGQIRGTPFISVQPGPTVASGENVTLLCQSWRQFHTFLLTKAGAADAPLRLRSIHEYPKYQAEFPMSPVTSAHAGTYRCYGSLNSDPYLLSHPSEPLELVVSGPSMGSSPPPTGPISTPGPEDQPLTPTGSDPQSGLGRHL
# T3 sequence (Q8N423 22-597): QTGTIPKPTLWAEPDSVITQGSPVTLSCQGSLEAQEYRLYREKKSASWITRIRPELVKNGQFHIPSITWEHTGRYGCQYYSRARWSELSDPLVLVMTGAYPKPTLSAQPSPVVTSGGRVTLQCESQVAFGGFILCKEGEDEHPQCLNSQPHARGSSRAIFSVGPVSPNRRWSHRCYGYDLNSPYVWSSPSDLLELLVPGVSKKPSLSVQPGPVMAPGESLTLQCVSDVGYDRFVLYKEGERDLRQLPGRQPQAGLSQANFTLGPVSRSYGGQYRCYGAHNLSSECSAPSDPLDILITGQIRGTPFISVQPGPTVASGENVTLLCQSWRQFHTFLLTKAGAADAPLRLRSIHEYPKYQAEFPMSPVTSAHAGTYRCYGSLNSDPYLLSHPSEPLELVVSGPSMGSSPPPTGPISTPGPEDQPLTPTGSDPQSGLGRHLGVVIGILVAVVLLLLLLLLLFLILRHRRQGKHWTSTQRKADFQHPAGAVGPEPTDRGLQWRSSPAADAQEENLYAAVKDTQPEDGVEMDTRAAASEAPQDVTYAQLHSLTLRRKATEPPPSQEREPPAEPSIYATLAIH
# T2 sequence (Q8NHL6 24-650): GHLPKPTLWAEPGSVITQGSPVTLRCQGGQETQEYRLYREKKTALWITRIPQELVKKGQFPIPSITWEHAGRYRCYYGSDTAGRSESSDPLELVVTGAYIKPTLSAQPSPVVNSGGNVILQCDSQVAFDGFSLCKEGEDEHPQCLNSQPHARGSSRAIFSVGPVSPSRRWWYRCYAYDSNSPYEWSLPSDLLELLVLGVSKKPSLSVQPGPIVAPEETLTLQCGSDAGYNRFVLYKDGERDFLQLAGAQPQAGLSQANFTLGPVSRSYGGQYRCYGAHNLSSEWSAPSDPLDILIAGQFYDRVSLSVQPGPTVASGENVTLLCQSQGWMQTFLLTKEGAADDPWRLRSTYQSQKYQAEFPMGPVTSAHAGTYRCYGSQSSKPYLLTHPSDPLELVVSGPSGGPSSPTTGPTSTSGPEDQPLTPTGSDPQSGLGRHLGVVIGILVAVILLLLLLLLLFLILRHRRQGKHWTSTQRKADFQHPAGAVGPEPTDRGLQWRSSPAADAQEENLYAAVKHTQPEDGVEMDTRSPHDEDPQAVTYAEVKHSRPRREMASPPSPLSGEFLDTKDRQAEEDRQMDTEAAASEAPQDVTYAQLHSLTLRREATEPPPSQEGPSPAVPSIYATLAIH
# Chain of huLILRA4 (P59901 24-446 limits assumed): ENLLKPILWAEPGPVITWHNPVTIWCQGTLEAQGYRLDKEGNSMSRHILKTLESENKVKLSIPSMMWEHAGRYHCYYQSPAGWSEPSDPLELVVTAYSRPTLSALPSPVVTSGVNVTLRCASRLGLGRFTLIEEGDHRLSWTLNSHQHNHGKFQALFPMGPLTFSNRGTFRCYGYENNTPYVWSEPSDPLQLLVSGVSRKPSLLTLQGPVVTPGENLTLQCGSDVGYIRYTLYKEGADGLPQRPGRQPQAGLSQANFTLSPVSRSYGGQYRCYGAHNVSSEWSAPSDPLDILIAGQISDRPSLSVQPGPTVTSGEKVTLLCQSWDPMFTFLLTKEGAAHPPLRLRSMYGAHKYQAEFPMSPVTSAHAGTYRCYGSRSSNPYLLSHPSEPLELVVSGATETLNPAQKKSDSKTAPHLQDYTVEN
# Chain of huLILRA6 (Q6PI73 24-447 limits assumed): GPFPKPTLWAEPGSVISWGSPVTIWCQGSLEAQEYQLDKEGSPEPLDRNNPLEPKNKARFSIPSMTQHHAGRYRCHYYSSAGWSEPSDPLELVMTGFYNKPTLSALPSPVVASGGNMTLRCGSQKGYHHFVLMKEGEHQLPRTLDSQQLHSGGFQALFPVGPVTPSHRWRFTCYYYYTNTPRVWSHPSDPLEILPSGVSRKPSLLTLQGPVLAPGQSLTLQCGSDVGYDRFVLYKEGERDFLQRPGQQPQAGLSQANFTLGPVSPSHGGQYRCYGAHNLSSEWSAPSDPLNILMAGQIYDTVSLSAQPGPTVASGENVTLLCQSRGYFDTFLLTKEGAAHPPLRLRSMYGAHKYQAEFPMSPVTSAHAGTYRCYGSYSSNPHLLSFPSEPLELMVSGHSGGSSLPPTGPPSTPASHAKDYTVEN
# Chain of huLILRA1 (O75019 17-461 limits assumed): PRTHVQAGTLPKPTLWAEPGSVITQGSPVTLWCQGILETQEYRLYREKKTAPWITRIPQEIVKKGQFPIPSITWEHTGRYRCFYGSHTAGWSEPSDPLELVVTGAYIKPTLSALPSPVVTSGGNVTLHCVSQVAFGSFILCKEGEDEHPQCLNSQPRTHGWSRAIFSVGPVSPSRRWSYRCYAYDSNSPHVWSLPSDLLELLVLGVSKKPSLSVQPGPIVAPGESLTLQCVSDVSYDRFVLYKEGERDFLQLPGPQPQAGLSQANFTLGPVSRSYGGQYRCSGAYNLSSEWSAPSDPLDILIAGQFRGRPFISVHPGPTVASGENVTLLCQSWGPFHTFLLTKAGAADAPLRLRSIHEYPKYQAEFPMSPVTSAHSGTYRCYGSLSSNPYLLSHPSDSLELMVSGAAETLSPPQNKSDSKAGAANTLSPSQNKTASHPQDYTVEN
# Chain of huLILRA3 (Q8N6C8 24-439 limits assumed): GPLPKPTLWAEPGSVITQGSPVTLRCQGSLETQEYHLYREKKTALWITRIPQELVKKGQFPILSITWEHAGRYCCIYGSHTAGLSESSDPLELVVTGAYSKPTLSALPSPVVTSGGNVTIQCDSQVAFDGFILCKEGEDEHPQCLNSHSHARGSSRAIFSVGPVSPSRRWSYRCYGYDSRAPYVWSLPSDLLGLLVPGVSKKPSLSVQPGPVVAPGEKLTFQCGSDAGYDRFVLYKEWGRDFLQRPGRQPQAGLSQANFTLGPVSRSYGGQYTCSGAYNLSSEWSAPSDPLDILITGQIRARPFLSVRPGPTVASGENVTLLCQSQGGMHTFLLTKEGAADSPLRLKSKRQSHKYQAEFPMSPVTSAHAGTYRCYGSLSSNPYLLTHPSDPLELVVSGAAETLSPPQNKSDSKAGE
# Chain of huLILRA2 (Q8N149 24-449 limits assumed): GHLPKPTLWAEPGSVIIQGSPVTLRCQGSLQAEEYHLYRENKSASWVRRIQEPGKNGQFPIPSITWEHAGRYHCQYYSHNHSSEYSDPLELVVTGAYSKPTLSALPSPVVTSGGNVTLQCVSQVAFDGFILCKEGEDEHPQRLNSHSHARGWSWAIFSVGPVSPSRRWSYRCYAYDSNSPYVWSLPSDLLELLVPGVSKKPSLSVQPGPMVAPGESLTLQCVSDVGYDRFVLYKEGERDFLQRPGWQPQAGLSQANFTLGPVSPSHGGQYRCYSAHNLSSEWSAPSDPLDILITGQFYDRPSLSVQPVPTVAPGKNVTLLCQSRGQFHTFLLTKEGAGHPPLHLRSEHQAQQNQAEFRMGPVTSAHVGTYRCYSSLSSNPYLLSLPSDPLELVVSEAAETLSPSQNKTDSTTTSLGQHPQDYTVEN
# Chain of huLILRB3 (O75022 24-443 limits assumed): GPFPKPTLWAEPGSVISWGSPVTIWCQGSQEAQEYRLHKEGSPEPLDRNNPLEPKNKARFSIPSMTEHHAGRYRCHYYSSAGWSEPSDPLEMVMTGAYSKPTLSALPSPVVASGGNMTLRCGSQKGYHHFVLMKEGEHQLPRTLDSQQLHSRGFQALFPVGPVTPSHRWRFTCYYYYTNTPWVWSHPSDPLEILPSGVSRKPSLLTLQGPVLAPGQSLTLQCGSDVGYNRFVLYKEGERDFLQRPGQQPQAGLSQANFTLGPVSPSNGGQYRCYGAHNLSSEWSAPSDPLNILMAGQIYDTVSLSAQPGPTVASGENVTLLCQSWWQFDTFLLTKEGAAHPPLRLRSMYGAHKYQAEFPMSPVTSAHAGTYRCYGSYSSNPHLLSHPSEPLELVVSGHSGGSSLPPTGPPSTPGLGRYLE
# Chain of huLILRA5 (A6NI73 42-268 limits assumed): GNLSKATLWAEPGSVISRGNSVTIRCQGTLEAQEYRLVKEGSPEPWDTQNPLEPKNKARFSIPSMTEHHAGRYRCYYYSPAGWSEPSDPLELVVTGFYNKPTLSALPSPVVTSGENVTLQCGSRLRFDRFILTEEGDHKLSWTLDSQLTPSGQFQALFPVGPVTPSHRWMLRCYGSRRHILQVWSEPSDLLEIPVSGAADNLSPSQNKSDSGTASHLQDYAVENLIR
Binder,binding result (huLILRB5),binding result (huLILRA6),binding result (huLILRA5),binding result (huLILRA2),binding result (huLILRA1),binding result (huLILRA3),binding result (huLILRA4),binding result (huLILRB4),EC50 (read off the curve) [1] [nM],binding result (huLILRB3),IC50 [2] [nM],IC50 [3] [nM],Kd [4] [nM],koff [4] [s⁻¹],kon [4] [M⁻¹ s⁻¹],t½ [4] [s],Kd [5] [nM],koff [5] [s⁻¹],kon [5] [M⁻¹ s⁻¹],t½ [5] [s]
"LILRB1xLILRB2 bispecific antibody BsAb-1882 (bispecific antibody, The B1 arm Fc chain is joined to the light chain CL; also called LILRB1/LILRB2 bispecific antibody) heavy 1: not shown light 1: SYELTQPPSVSVSPGQTASITCGGNNIGSKGVHWYQQKPGQSPVLVISYDSDRPSGIPERFSGSNSGNTATLTISGTQAMDEADYYCQVWDSSTRVFGTGTKVTVLGQPKAAPSVTLFPPSSEELQANKATLVCLISDFYPGAVTVAWKADSSPVKAGVETTTPSKQSNNKYAASSYLSLTPEQWKSHRSYSCQVTHEGSTVEKTVAPTECSDKTHTCPPCPAPEAAGAPSVFLFPPKPKDTLMISRTPEVTCVVVDVSHEDPEVKFNWYVDGVEVHNAKTKPREEQYNSTYRVVSVLTVLHQDWLNGKEYKCKVSNKALPAPIEKTISKAKGQPREPQVYTLPPCREEMTKNQVSLSCAVKGFYPSDIAVEWESNGQPENNYKTTPPVLDSDGSFFLVSKLTVDKSRWQQGNVFSCSVMHEALHNHYTQKSLSLSPGK heavy 2: EVQLLESGGGLVQPGGSLRLSCAASGFTFSSYAMSWVRQAPGKGLEWVSAISGSGGSTYYADSVKGRFTISRDNSKNTLYLQMNSLRAEDTAVYYCWRWLNLGDAFDIWGQGTMVTVSSASTKGPSVFPLAPSSKSTSGGTAALGCLVKDYFPEPVTVSWNSGALTSGVHTFPAVLQSSGLYSLSSVVTVPSSSLGTQTYICNVNHKPSNTKVDKKVEPKSCDKTHTCPPCPAPEAAGAPSVFLFPPKPKDTLMISRTPEVTCVVVDVSHEDPEVKFNWYVDGVEVHNAKTKPREEQYNSTYRVVSVLTVLHQDWLNGKEYKCKVSNKALPAPIEKTISKAKGQPREPQVCTLPPSREEMTKNQVSLWCLVKGFYPSDIAVEWESNGQPENNYKTTPPVLDSDGSFFLYSKLTVDKSRWQQGNVFSCSVMHEALHNHYTQKSLSLSPGK light 2: not shown",no binding (tested: about 130 nM),no binding (tested: about 130 nM),no binding (tested: about 130 nM),no binding (tested: about 130 nM),no binding (tested: about 130 nM),no binding (tested: about 130 nM),no binding (tested: about 130 nM),no binding (tested: about 130 nM),~0.6,no binding (tested: about 130 nM),37.6,15.4,29.8,0.0135,457000,51.3,0.73,0.000323,443000,2150
"LILRB1xLILRB2 bispecific antibody BsAb-1880 (bispecific antibody, human IgG1) heavy 1: not shown light 1: SYELTQPPSVSVSPGQTASITCGGNNIGSKGVHWYQQKPGQSPVLVISYDSDRPSGIPERFSGSNSGNTATLTISGTQAMDEADYYCQVWDSSTRVFGTGTKVTVLGQPKAAPSVTLFPPSSEELQANKATLVCLISDFYPGAVTVAWKADSSPVKAGVETTTPSKQSNNKYAASSYLSLTPEQWKSHRSYSCQVTHEGSTVEKTVAPTECS heavy 2: EVQLLESGGGLVQPGGSLRLSCAASGFTFSSYAMSWVRQAPGKGLEWVSAISGSGGSTYYADSVKGRFTISRDNSKNTLYLQMNSLRAEDTAVYYCWRWLNLGDAFDIWGQGTMVTVSSASTKGPSVFPLAPSSKSTSGGTAALGCLVKDYFPEPVTVSWNSGALTSGVHTFPAVLQSSGLYSLSSVVTVPSSSLGTQTYICNVNHKPSNTKVDKKVEPKSCEKTHTCPPCPAPEAAGAPSVFLFPPKPKDTLMISRTPEVTCVVVDVSHEDPEVKFNWYVDGVEVHNAKTKPREEQYNSTYRVVSVLTVLHQDWLNGKEYKCKVSNKALPAPIEKTISKAKGQPREPQVYTLPPSREEMTKNQVSLTCEVKGFYPSDIAVEWESNGQPENNYKTTPPVLDSDGSFFLYSKLTVDKSRWQQGNVFSCSVMHEALHNHYTQKSLSLSPGK light 2: not shown",–,–,–,–,–,–,–,–,–,–,43.2,16.1,–,–,–,–,–,–,–,–
